Measured values as given in US20210244792A1.

Target: complement C5
Test: direct binding to C5 (FIG. 4C); method not described

## EV576 protein (native, purified from salivary gland extracts of the soft tick Ornithodoros moubata) (from UniProt Q5YD59 19-168)
  IC50: 20 µg/mL
